Results reported in paper PMC3114554.

Legend:
Assay in all cases: FRET or BRET
CFP-tagged KCNQ2 (human) = molecular target: CFP-tagged KCNQ2 (human)
CFP-tagged KCNQ3 (human) = CFP-tagged KCNQ3 (human) (UniProt O43525)
CFP-tagged KCNQ4 (human) = CFP-tagged KCNQ4 (human) (UniProt P56696)
Chain of UniProt P56696 (P56696 whole entry): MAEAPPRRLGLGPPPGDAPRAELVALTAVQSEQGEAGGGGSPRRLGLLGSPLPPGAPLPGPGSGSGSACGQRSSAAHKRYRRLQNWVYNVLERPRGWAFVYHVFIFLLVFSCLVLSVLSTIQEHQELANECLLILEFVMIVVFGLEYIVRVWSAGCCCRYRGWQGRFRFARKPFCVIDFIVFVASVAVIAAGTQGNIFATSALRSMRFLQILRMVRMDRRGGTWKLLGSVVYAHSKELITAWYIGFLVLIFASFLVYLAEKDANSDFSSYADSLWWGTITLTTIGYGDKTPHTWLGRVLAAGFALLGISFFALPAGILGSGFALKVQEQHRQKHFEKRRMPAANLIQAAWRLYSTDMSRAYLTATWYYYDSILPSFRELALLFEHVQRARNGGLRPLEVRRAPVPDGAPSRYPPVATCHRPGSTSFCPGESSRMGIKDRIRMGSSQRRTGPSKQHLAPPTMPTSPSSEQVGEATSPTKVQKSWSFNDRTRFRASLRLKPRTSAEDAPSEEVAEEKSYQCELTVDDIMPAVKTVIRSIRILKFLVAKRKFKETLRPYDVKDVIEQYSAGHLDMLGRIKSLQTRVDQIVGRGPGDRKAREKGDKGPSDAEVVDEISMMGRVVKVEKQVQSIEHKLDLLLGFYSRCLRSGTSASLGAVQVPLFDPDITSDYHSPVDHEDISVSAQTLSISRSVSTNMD

Chain of UniProt O43525 (O43525 whole entry): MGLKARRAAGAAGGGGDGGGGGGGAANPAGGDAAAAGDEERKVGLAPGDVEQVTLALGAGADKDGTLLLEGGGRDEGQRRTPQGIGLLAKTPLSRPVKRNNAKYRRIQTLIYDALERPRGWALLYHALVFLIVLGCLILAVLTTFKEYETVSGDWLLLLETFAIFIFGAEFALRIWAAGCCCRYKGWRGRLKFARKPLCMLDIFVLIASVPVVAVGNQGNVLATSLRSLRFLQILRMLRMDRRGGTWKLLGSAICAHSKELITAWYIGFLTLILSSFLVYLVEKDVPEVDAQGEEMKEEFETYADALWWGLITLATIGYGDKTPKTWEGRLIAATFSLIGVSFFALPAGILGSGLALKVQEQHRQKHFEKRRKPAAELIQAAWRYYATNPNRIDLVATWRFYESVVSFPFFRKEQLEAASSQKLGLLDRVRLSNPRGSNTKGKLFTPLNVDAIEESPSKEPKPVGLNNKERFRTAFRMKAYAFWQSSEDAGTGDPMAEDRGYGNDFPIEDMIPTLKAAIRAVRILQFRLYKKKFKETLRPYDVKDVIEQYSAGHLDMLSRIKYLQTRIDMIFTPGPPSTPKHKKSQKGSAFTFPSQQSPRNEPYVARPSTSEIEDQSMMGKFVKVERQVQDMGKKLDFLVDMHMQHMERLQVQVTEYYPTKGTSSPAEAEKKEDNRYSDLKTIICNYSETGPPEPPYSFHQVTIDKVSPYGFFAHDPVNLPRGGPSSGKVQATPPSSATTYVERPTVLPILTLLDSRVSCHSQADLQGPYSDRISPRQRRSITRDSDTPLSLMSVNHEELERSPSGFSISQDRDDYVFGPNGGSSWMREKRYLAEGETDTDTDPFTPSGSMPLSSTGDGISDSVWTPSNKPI

Question: What does the source list for “YFP-tagged ΔA-AKAP79 (from UniProt P24588 1-427) (natural protein)”?
Answer: FRET efficiency (CFP-tagged KCNQ2 (human)): 17%; FRET efficiency (CFP-tagged KCNQ3 (human)): 13%; FRET efficiency (CFP-tagged KCNQ4 (human)): 16%
